Where two headings read alike, the source gives them in different places.
T1: human CD19 (human, UniProt P15391 20-556)
T1 construct: also called B-cell surface antigen B4; B-cell antigen CD19
T1 sequence: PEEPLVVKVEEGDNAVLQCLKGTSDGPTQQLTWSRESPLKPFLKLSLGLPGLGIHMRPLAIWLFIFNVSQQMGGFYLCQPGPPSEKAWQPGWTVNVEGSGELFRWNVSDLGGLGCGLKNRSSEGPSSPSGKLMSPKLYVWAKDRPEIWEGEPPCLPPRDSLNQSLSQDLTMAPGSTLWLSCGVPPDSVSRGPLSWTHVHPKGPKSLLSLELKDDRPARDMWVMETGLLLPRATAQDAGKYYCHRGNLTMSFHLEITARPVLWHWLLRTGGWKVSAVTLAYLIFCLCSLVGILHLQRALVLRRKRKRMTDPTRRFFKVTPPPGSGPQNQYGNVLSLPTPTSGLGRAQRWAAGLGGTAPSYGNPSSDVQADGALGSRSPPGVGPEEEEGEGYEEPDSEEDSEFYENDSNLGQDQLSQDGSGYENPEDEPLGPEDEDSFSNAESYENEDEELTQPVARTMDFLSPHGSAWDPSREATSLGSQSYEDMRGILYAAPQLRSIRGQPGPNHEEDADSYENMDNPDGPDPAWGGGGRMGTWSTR


Experiments:
human CD19 [1] = molecular target: T1, human CD19; experiment: binding affinity relative to the parent H1L1 mAb (Example 5); assay and format not named on the sheet
human CD19 [2] = molecular target: T1, human CD19; experiment: as above; remark: listed apart in the source

Binder	Fold change binding (human CD19 [1]) [fold]	Fold change binding (human CD19 [2]) [fold]
H1 / L1.3 (antibody, V domains shown, vs H1L1 (Kabat): VL S52Q; also called 4G7 H1_L1.3) VH: EVQLVESGGGLVKPGGSLKLSCAASGYTFTSYVMHWVRQAPGKGLEWIGYINPYNDGTKYNEKFQGRVTISSDKSISTAYMELSSLRSEDTAMYYCARGTYYYGSRVFDYWGQGTLVTVSS VL: DIVMTQSPATLSLSPGERATLSCRSSKSLLNSNGNTYLYWFQQKPGQSPQLLIYRMQNLASGVPDRFSGSGSGTEFTLTISSLEPEDFAVYYCMQHLEYPFTFGAGTKLEIK	1.85	
H1.202 / L1.160 (antibody, V domains shown, vs H1L1 (Kabat): VH D55E/S100cT; VL L27cQ/S27eV/G29A/A55N/F96I; also called 4G7 H1.202_L1.160) VH: EVQLVESGGGLVKPGGSLKLSCAASGYTFTSYVMHWVRQAPGKGLEWIGYINPYNEGTKYNEKFQGRVTISSDKSISTAYMELSSLRSEDTAMYYCARGTYYYGTRVFDYWGQGTLVTVSS VL: DIVMTQSPATLSLSPGERATLSCRSSKSLQNVNANTYLYWFQQKPGQSPQLLIYRMSNLNSGVPDRFSGSGSGTEFTLTISSLEPEDFAVYYCMQHLEYPITFGAGTKLEIK		3.96
H1.202 / L1.161 (antibody, V domains shown, vs H1L1 (Kabat): VH D55E/S100cT; VL L27cQ/S27eV/G29S/A55N/F96I; also called 4G7 H1.202_L1.161) VH: EVQLVESGGGLVKPGGSLKLSCAASGYTFTSYVMHWVRQAPGKGLEWIGYINPYNEGTKYNEKFQGRVTISSDKSISTAYMELSSLRSEDTAMYYCARGTYYYGTRVFDYWGQGTLVTVSS VL: DIVMTQSPATLSLSPGERATLSCRSSKSLQNVNSNTYLYWFQQKPGQSPQLLIYRMSNLNSGVPDRFSGSGSGTEFTLTISSLEPEDFAVYYCMQHLEYPITFGAGTKLEIK		4.3
H1.201 / L1.161 (antibody, V domains shown, vs H1L1 (Kabat): VH D55S/S100cT; VL L27cQ/S27eV/G29S/A55N/F96I; also called 4G7 H1.201_L1.161) VH: EVQLVESGGGLVKPGGSLKLSCAASGYTFTSYVMHWVRQAPGKGLEWIGYINPYNSGTKYNEKFQGRVTISSDKSISTAYMELSSLRSEDTAMYYCARGTYYYGTRVFDYWGQGTLVTVSS VL: DIVMTQSPATLSLSPGERATLSCRSSKSLQNVNSNTYLYWFQQKPGQSPQLLIYRMSNLNSGVPDRFSGSGSGTEFTLTISSLEPEDFAVYYCMQHLEYPITFGAGTKLEIK		3.89

The next lines start with the values.

Fold change binding (human CD19 [1]) [fold]	Fold change binding (human CD19 [2]) [fold]	Binder
	4.73	H1.203 / L1.155 (antibody, V domains shown, vs H1L1 (Kabat): VH D55S/K58E/S100cT; VL L27cQ/S27eV/A55N/F96I; also called 4G7 H1.203_L1.155) VH: EVQLVESGGGLVKPGGSLKLSCAASGYTFTSYVMHWVRQAPGKGLEWIGYINPYNSGTEYNEKFQGRVTISSDKSISTAYMELSSLRSEDTAMYYCARGTYYYGTRVFDYWGQGTLVTVSS VL: DIVMTQSPATLSLSPGERATLSCRSSKSLQNVNGNTYLYWFQQKPGQSPQLLIYRMSNLNSGVPDRFSGSGSGTEFTLTISSLEPEDFAVYYCMQHLEYPITFGAGTKLEIK
	1.76	H1.203 / L1.160 (antibody, V domains shown, vs H1L1 (Kabat): VH D55S/K58E/S100cT; VL L27cQ/S27eV/G29A/A55N/F96I; also called 4G7 H1.203_L1.160) VH: EVQLVESGGGLVKPGGSLKLSCAASGYTFTSYVMHWVRQAPGKGLEWIGYINPYNSGTEYNEKFQGRVTISSDKSISTAYMELSSLRSEDTAMYYCARGTYYYGTRVFDYWGQGTLVTVSS VL: DIVMTQSPATLSLSPGERATLSCRSSKSLQNVNANTYLYWFQQKPGQSPQLLIYRMSNLNSGVPDRFSGSGSGTEFTLTISSLEPEDFAVYYCMQHLEYPITFGAGTKLEIK
	3.46	H1.204 / L1.160 (antibody, V domains shown, vs H1L1 (Kabat): VH D55E/K58E/S100cT; VL L27cQ/S27eV/G29A/A55N/F96I; also called 4G7 H1.204_L1.160) VH: EVQLVESGGGLVKPGGSLKLSCAASGYTFTSYVMHWVRQAPGKGLEWIGYINPYNEGTEYNEKFQGRVTISSDKSISTAYMELSSLRSEDTAMYYCARGTYYYGTRVFDYWGQGTLVTVSS VL: DIVMTQSPATLSLSPGERATLSCRSSKSLQNVNANTYLYWFQQKPGQSPQLLIYRMSNLNSGVPDRFSGSGSGTEFTLTISSLEPEDFAVYYCMQHLEYPITFGAGTKLEIK
	2.92	H1.203 / L1.161 (antibody, V domains shown, vs H1L1 (Kabat): VH D55S/K58E/S100cT; VL L27cQ/S27eV/G29S/A55N/F96I; also called 4G7 H1.203_L1.161) VH: EVQLVESGGGLVKPGGSLKLSCAASGYTFTSYVMHWVRQAPGKGLEWIGYINPYNSGTEYNEKFQGRVTISSDKSISTAYMELSSLRSEDTAMYYCARGTYYYGTRVFDYWGQGTLVTVSS VL: DIVMTQSPATLSLSPGERATLSCRSSKSLQNVNSNTYLYWFQQKPGQSPQLLIYRMSNLNSGVPDRFSGSGSGTEFTLTISSLEPEDFAVYYCMQHLEYPITFGAGTKLEIK
